Measurements reported in US12427210B2, “Compounds comprising a fibroblast activation protein ligand and use thereof” (priority 2019, dated 2025).
Bridge positions count the residues as written; N and C are the ends. * marks the point of attachment. Hexanoyl = CCCCCC(=O)*

B1: Hex-[Cys(tMeBn(InDOTA-AET))-Pro-Pro-Thr-Gln-Phe-Cys]-OH (3BP-3623) (peptide)
peptide: CPPTQFC
modifications: here or on the partner: N-terminal hexanoyl (Hex); Cys1 and Cys7 cyclised through tMeBn carrying InDOTA-AET (indium complex); free C-terminal acid (-OH)
B2: Hex-[Cys(tMeBn(EuDOTA-PP))-Pro-Pro-Thr-Gln-Phe-Cys]-Asp-NH2 (3BP-3661) (peptide)
peptide: CPPTQFCD
modifications: N-terminal hexanoyl (Hex); Cys1 and Cys7 cyclised through tMeBn carrying EuDOTA-PP (europium complex); C-terminal amide
B3: Hex-[Cys(tMeBn(GaDOTA-AET))-Pro-Pro-Thr-Gln-Phe-Cys]-OH (3BP-3949) (peptide)
peptide: CPPTQFC
modifications: here or on the partner: N-terminal hexanoyl (Hex); Cys1 and Cys7 cyclised through tMeBn carrying GaDOTA-AET (gallium complex); free C-terminal acid (-OH)
B4: Hex-[Cys(tMeBn(EuDOTA-AET))-Pro-Pro-Thr-Gln-Phe-Cys]-OH (3BP-3662) (peptide)
peptide: CPPTQFC
modifications: here or on the partner: N-terminal hexanoyl (Hex); Cys1 and Cys7 cyclised through tMeBn carrying EuDOTA-AET (europium complex); free C-terminal acid (-OH)
B5: Cystatin C (protein)
chain: SSPGKPPRLVGGPMDASVEEEGVRRALDFAVGEYNKASNDMYHSRALQVVRARKQIVAGVNYFLDVELGRTTCTKTQPNLDNCPFHDQPHLKRKAFCSFQIYAVPWQGTMTLSKSTCQDA
B6: Hex-[Cys(tMeBn(LuDOTA-AET))-Pro-Pro-Thr-Gln-Phe-Cys]-OH (3BP-3624) (peptide)
peptide: CPPTQFC
modifications: here or on the partner: N-terminal hexanoyl (Hex); Cys1 and Cys7 cyclised through tMeBn carrying LuDOTA-AET (lutetium complex); free C-terminal acid (-OH)
B7: Hex-[Cys-(tMeBn(ZnDOTA-AET))-Pro-Pro-Thr-Gln-Phe-Cys]-OH (3BP-4343) (peptide)
peptide: Hexanoyl-CPPTQFC-OH
modifications: bridge 1-7; not fully specified (bridges); printed as Hex-[Cys-(tMeBn(ZnDOTA-AET))-Pro-Pro-Thr-Gln-Phe-Cys]-OH; also: zinc complex (ZnDOTA) of 3BP-3554
B8: Hex-[Cys(tMeBn(GaDOTA-PP))-Pro-Pro-Thr-Gln-Phe-Cys]-Asp-NH2 (3BP-3592) (peptide)
peptide: CPPTQFCD
modifications: N-terminal hexanoyl (Hex); Cys1 and Cys7 cyclised through tMeBn carrying GaDOTA-PP (gallium complex); C-terminal amide
B9: alpha -dendrotoxin (protein)
chain: QPRRKLCILHRNPGRCYDKIPAFYYNQKKKQCERFDWSGCGGNSNRFKTIEECRRTCIG
B10: Hex-[Cys-(tMeBn(CuDOTA-AET))-Pro-Pro-Thr-Gln-Phe-Cys]-OH (3BP-4293) (peptide)
peptide: CPPTQFC
modifications: here or on the partner: N-terminal hexanoyl (Hex); Cys1 and Cys7 cyclised through tMeBn carrying CuDOTA-AET (copper(II) complex); free C-terminal acid (-OH)
B11: Hex-[Cys(tMeBn(InDOTA-PP))-Pro-Pro-Thr-Gln-Phe-Cys]-Asp-NH2 (3BP-3590) (peptide)
peptide: CPPTQFCD
modifications: N-terminal hexanoyl (Hex); Cys1 and Cys7 cyclised through tMeBn carrying InDOTA-PP (indium complex); C-terminal amide
B12: Hex-[Cys(tMeBn(LuDOTA-PP))-Pro-Pro-Thr-Gln-Phe-Cys]-Asp-NH2 (3BP-3591) (peptide)
peptide: CPPTQFCD
modifications: N-terminal hexanoyl (Hex); Cys1 and Cys7 cyclised through tMeBn carrying LuDOTA-PP (lutetium complex); C-terminal amide

Tests used:
[1] = biological target: human fibroblast activation protein (FAP) on human WI-38 fibroblasts (human); test: competitive FACS binding on FAP-expressing WI-38 cells against 3 nM Cy5-labeled compound; category A = pIC50 values >8.0; settings: remark: other sources report otherwise
[2] = biological target: Recombinant human FAP (R&D systems, #3715-SE) (human)
[3] = biological target: T1, Cathepsin F (Homo sapiens (Human)) (UniProt Q9UBX1)
T1 sequence: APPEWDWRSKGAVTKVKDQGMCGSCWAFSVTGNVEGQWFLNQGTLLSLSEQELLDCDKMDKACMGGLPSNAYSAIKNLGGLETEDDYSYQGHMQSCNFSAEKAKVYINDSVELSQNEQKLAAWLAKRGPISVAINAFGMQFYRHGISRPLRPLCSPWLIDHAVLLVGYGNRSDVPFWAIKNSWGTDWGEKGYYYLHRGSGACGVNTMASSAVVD

[4] = biological target: KV channel; test: radioligand displacement, reference compound of the assay (Ki Ref)

Recombinant human FAP (R&D systems, #3715-SE) (human), sequence (chain, as listed by the source limits assumed): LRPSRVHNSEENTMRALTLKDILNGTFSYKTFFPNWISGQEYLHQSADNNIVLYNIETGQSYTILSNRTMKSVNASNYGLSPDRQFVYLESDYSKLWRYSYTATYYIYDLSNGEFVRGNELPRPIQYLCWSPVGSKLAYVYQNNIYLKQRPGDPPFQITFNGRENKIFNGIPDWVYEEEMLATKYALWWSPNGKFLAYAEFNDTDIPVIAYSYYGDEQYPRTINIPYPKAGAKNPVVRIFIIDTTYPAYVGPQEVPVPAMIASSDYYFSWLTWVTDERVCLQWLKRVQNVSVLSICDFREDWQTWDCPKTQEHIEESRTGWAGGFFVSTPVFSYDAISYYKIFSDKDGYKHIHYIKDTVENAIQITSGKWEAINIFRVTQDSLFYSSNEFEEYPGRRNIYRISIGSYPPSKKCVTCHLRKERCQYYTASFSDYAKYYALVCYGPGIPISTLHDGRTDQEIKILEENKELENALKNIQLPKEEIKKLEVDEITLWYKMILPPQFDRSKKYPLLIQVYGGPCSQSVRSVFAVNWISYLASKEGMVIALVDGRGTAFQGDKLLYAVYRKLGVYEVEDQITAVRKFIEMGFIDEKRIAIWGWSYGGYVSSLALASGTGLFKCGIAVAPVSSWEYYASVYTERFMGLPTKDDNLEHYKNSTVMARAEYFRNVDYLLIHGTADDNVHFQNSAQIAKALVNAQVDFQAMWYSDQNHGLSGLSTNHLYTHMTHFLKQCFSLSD

Binder | pIC50 Category (FACS) [1] [pIC50] | pIC50 Category (Activity) [2] [pIC50] | further results
B1 | > 8 | – | –
B2 | – | > 8 | –
B3 | > 8 | – | –
B4 | > 8 | – | –
B5 | – | – | Percentage inhibition (%), Reference (% inhibition at 1 µM) [3]: 74
B6 | > 8 | – | –
B7 | > 8 | – | –
B8 | – | > 8 | –
B9 | – | – | Ki [4]: 0.097 nM
B10 | > 8 | – | –
B11 | – | > 8 | –
B12 | – | > 8 | –
